Assays:
Test in all cases: Biacore, steady-state affinity fit
activin A = target: T1, activin A (UniProt P08476 311-426)
T1 construct: also called ActA
T1 sequence (looked up): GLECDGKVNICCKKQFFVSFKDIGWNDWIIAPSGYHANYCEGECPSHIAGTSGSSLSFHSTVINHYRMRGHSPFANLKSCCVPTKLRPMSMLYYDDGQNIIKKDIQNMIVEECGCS
Description: (§1) The affinity of ActRIIB variants and other ActRIIB-hFc proteins for several ligands was evaluated in vitro with a Biacore™ instrument. Kd values were obtained by steady-state affinity fit due to the very rapid association and dissociation of the complex, which prevented accurate determination of kₒₙ and koff.

activin B = target: T2, activin B (UniProt P09529 293-407)
T2 sequence (looked up): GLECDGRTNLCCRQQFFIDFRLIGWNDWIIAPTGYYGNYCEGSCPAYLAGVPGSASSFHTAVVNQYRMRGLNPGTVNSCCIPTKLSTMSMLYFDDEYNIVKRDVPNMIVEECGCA
Description: as §1

GDF11 = target: T3, GDF11 (UniProt O95390 299-407)
T3 sequence (looked up): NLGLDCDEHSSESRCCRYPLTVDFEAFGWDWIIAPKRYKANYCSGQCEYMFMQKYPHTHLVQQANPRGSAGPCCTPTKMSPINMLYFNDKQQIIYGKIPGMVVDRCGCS
Description: as §1

Kd (activin A): 22.9 nM
Kd (activin B): 0.621 nM
Kd (GDF11): 0.074 nM
B1: ActRIIB(L79D 25-131)-hFc (Fc fusion)
chain: ETRECIYYNANWELERTNQSGLERCEGEQDKRLHCYASWRNSSGTIELVKKGCWDDDFNCYDRQECVATEENPQVYFCCCEGNFCNERFTHLPEAGGPEVTYEPPPTGGGTHTCPPCPAPELLGGPSVFLFPPKPKDTLMISRTPRVTCVVVDVSHEDPEVKFNWYVDGVEVHNAKTKPREEQYNSTYRVVSVLTVLHQDWLNGKEYKCKVSNKALPAPIEKTISKAKGQPREPQVYTLPPSREEMTKNQVSLTCLVKGFYPSDIAVEWESNGQPENNYKTTPPVLDSDGSFFLYSKLTVDKSRWQQGNVFSCSVMHEALHNHYTQKSLSLSPGK
notes: Cell purified form without leader

— patent publication US20240366722A1 (ACCELERON PHARMA, published 2024)
